± gives the uncertainty stated by the source.
B1: Transitional endoplasmic reticulum ATPase, residues 26 to 106; numbered along this chain, P55072 (parent)
chain: LIVDEAINEDNSVVSLSQPKMDELQLFRGDTVLLKGKKRREAVCIVLSDDTCSDEKIRMNRVVRNNLRVRLGDVISIQPCP

Variants of: B1
Assay: abundance fitness (aPCA) (normalised: wild type 0, dead -1); higher = more abundant; growth selection in yeast, the domain comes from the species named
Details: Homo sapiens

| Variant | abundance fitness |
| --- | --- |
| E41S | -0.09 ± 0.057 |
| E41H | -0.167 ± 0.14 |
| K56N | 0.111 ± 0.23 |
| K56Y | -0.022 ± 0.1 |
| L26Q | -0.763 ± 0.13 |
| L26A | -0.36 ± 0.063 |
| L26P | -0.859 ± 0.18 |
| L26R | -0.939 ± 0.088 |
| L34M | -0.073 ± 0.11 |
| I7Q | -0.17 ± 0.089 |
| I7R | -0.042 ± 0.044 |
| I7G | -0.011 ± 0.031 |
| V74A | 0.031 ± 0.077 |
| G29N | -0.03 ± 0.11 |
| G29W | -0.268 ± 0.062 |
| G29C | -0.259 ± 0.1 |
| G29S | -0.109 ± 0.062 |
| G29E | -0.198 ± 0.063 |
| G29D | -0.172 ± 0.097 |
| E5Y | 0.048 ± 0.089 |
| E5Q | -0.124 ± 0.12 |
| E5I | -0.045 ± 0.048 |
| E5L | -0.107 ± 0.041 |
| E5H | -0.224 ± 0.1 |

| Variant | abundance fitness |
| --- | --- |
| E5T | -0.1 ± 0.058 |
| E5V | -0.068 ± 0.041 |
| M59T | -0.275 ± 0.1 |
| M59C | -0.066 ± 0.088 |
| M59R | -1.08 ± 0.13 |
| M59G | -1.01 ± 0.18 |
| D50N | -0.105 ± 0.16 |
| D50V | -0.12 ± 0.044 |
| D50Y | -0.246 ± 0.11 |
| D50E | -0.023 ± 0.081 |
| D50I | -0.059 ± 0.1 |
| P79T | -0.11 ± 0.088 |
| P79Y | -0.208 ± 0.12 |
| P79C | -0.099 ± 0.096 |
| P79M | -0.076 ± 0.11 |
| F27I | -0.04 ± 0.062 |
| F27L | 0.026 ± 0.052 |
| F27Q | -0.098 ± 0.1 |
| F27A | 0.042 ± 0.048 |
| F27E | 0.095 ± 0.081 |
| N11E | 0.031 ± 0.069 |
| N11W | -0.26 ± 0.069 |
| N11I | -0.024 ± 0.038 |
| I2M | -0.102 ± 0.075 |

| Variant | abundance fitness |
| --- | --- |
| I2W | -0.302 ± 0.11 |
| I2Y | -0.418 ± 0.22 |
| I2P | -0.891 ± 0.27 |
| V62G | 0.025 ± 0.052 |
| V62H | 0.038 ± 0.14 |
| V62I | 0.011 ± 0.13 |
| V62A | -0.04 ± 0.06 |
| V62M | 0.022 ± 0.087 |
| V62K | 0.003 ± 0.092 |
| V62L | 0.005 ± 0.055 |
| L24C | -0.574 ± 0.12 |
| L24Q | -0.516 ± 0.14 |
| L24P | -0.551 ± 0.099 |
| L24N | -0.47 ± 0.19 |
| L24F | -0.321 ± 0.11 |
| L24D | -0.759 ± 0.079 |
| L24K | -0.98 ± 0.2 |
| R40M | -0.077 ± 0.12 |
| R40G | 0.107 ± 0.055 |
| R40H | -0.139 ± 0.11 |
| R40Q | -0.039 ± 0.15 |
| R40N | -0.075 ± 0.12 |
| I75A | -0.246 ± 0.088 |
| I75L | -0.155 ± 0.054 |

| Variant | abundance fitness |
| --- | --- |
| I75E | -0.633 ± 0.19 |
| D10E | -0.159 ± 0.077 |
| D10P | -0.02 ± 0.071 |
| D10M | -0.054 ± 0.058 |
| D10W | -0.189 ± 0.071 |
| K35F | -0.247 ± 0.2 |
| K35P | -0.869 ± 0.27 |
| K35M | -0.02 ± 0.082 |
| E55A | -0.019 ± 0.061 |
| E55K | -0.03 ± 0.11 |
| E55L | 0.003 ± 0.059 |
| E55M | -0.143 ± 0.097 |
| E55S | 0.01 ± 0.056 |
| R61Q | -0.036 ± 0.18 |
| R61F | -0.158 ± 0.14 |
| R61I | -0.026 ± 0.15 |
| S76I | -0.173 ± 0.13 |
| S76M | -0.012 ± 0.087 |
| S76A | -0.036 ± 0.073 |
| S76Q | 0.057 ± 0.11 |
| S76L | -0.112 ± 0.06 |
| V14G | -0.758 ± 0.054 |
| V14D | -0.704 ± 0.12 |
| V14T | -0.743 ± 0.11 |

| Variant | abundance fitness |
| --- | --- |
| V14W | -0.816 ± 0.13 |
| V14C | -0.11 ± 0.069 |
| V14R | -0.884 ± 0.083 |
| V14L | -0.763 ± 0.073 |
| R58Q | -0.185 ± 0.14 |
| R58T | -0.515 ± 0.13 |
| R58G | -0.156 ± 0.056 |
| V13H | 0.053 ± 0.12 |
| V13W | -0.006 ± 0.053 |
| V13C | 0.056 ± 0.11 |
| V46P | -0.439 ± 0.1 |
| V46F | -0.688 ± 0.15 |
| V46S | -0.493 ± 0.078 |
| V46W | -0.74 ± 0.19 |
| V46R | -0.951 ± 0.15 |
| V46D | -0.804 ± 0.17 |
| V69S | -0.255 ± 0.072 |
| V69P | -1.03 ± 0.3 |
| V69G | -0.886 ± 0.097 |
| V69M | -0.032 ± 0.1 |
| V69Y | -0.781 ± 0.35 |
| V69I | -0.022 ± 0.079 |
| V69Q | -0.689 ± 0.085 |
| V69W | -0.987 ± 0.24 |

| Variant | abundance fitness |
| --- | --- |
| Q78H | -0.025 ± 0.12 |
| Q78P | -0.256 ± 0.24 |
| Q78V | 0.039 ± 0.064 |
| Q78Y | 0.024 ± 0.33 |
| Q78S | -0.031 ± 0.078 |
| L1R | -0.744 ± 0.23 |
| L1G | -0.662 ± 0.21 |
| V63C | 0.031 ± 0.09 |
| V63K | -0.433 ± 0.11 |
| V32F | -0.832 ± 0.28 |
| V32M | -0.166 ± 0.1 |
| T31L | -0.129 ± 0.061 |
| T31N | -0.023 ± 0.11 |
| T31C | -0.262 ± 0.11 |
| T31A | -0.089 ± 0.038 |
| T31K | 0.077 ± 0.071 |
| T31M | -0.004 ± 0.13 |
| T31E | 0.041 ± 0.064 |
| R28M | 0.011 ± 0.092 |
| R28Q | -0.008 ± 0.066 |
| R28K | 0.064 ± 0.069 |
| S53E | 0.003 ± 0.091 |
| S53D | 0.021 ± 0.14 |
| S53A | -0.019 ± 0.048 |

| Variant | abundance fitness |
| --- | --- |
| S53R | -0.035 ± 0.042 |
| R64Q | -0.105 ± 0.1 |
| R64I | -0.061 ± 0.17 |
| R64G | -0.638 ± 0.08 |
| R64W | -0.684 ± 0.18 |
| R64M | -0.036 ± 0.16 |
| R64F | -0.212 ± 0.23 |
| N8T | 0.046 ± 0.067 |
| N8D | 0.075 ± 0.09 |
| N8E | 0.013 ± 0.061 |
| N8K | -0.011 ± 0.07 |
| K38Q | -0.051 ± 0.16 |
| K38R | -0.024 ± 0.077 |
| K38I | -0.282 ± 0.15 |
| K38T | 0.033 ± 0.11 |
| D4E | -0.015 ± 0.095 |
| D4Q | -0.179 ± 0.071 |
| D4K | -0.271 ± 0.13 |
| D4G | -0.085 ± 0.043 |
| V43T | -0.068 ± 0.076 |
| V43K | -0.006 ± 0.13 |
| V43N | -0.176 ± 0.19 |
| V43S | -0.052 ± 0.076 |
